Reference: article PMC6366628

Experiments:
RPA complex = RPA complex (Homo sapiens, UniProt P27694;P15927;P35244 1-616;1-270;1-121); experiment: EMSA
RAD52 = molecular target: T1, RAD52 (Homo sapiens, UniProt P43351 1-418); experiment: EMSA
T1 sequence: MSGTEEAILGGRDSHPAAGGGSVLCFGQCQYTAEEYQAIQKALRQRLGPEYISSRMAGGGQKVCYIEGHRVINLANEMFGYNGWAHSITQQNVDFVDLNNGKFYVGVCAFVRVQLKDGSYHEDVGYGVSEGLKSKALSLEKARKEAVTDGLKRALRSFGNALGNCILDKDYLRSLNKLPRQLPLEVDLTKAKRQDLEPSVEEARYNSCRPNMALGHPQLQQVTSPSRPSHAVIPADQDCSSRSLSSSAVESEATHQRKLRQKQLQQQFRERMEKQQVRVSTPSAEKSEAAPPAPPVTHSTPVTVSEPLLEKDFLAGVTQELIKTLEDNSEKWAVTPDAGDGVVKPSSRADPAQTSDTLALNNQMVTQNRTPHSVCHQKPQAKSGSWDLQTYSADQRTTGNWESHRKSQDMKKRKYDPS

Chain of RPA complex (P27694 whole entry, chain 1 of 3): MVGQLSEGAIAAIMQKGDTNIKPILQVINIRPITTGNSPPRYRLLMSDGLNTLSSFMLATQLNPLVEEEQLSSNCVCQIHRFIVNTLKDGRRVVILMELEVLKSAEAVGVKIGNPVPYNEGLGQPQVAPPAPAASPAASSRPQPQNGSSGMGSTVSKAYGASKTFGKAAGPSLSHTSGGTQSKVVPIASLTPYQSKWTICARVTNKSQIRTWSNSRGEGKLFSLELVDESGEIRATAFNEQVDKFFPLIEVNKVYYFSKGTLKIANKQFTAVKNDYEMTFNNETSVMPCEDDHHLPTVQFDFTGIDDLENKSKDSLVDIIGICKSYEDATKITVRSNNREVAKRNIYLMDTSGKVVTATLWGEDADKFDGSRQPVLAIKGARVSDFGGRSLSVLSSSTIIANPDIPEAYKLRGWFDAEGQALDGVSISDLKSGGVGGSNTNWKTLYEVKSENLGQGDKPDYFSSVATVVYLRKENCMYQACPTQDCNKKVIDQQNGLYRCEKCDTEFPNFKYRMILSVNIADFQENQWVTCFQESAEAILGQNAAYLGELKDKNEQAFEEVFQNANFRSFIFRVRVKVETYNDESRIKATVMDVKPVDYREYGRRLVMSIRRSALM
Chain of RPA complex (P15927 whole entry, chain 2 of 3): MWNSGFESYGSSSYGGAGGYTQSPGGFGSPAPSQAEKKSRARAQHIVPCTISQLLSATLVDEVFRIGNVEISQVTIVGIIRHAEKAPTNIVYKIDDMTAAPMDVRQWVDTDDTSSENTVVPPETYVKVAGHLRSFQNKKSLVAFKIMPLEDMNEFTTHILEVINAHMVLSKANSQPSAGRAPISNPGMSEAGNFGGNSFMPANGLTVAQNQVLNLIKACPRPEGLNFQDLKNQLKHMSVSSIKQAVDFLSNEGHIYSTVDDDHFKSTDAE
Chain of RPA complex (P35244 whole entry, chain 3 of 3): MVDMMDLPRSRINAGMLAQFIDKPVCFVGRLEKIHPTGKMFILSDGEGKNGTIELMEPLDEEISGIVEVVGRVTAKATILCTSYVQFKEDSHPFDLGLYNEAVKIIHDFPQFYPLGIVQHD

B1: ssTelo (Telo G-strand) (ssDNA)
DNA: TTAGGGTTAGGGTTAGGGTTAGGGTTAGGGTTAGGGTTAGGGTTAGGGTTAGGGTTAGGG
B1: binds (RPA complex); binds (RAD52).
